# Results reported in the nanobody polyreactivity screen of Harvey et al. (2022).
# Experiment: yeast display, Sf9 membrane polyspecificity reagent, FACS + sequencing; frameworks hold sequencing errors
# Procedure, shortened: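 A nanobody's polyreactivity label depends on the gate it was sorted from. Yeast display cells were stained with 10% biotinylated, detergent-solubilized Sf9 membrane reagent for 1 hour at 4 °C, enriched on streptavidin microbeads and sorted by FACS. The low and high (top ~1%) gates were set on anti-HA fluorescence for expression and streptavidin fluorescence for reagent binding.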
row,Sequence,polyreactivity (PSR sort gate)
1,QVQLVESGGGLVQAGGSLRLSCAASGFIFATYTMGWYRQAPGKERELVAAITWRGGSTYYADTVKGRFPISRDNAKNTVYLQMNSLKPEDTAVYYCAAQDVNSYRYVEDVYCGQGTQVTVSS,low polyreactivity
2,QVQLVESGRALVQAGGSLRLSCAASGFTFWTNTMGWYIQAPGKERELVAAITSTGGTTYYADSVKGRFTISRDNAKNTVYLQMNSLKAEDTAVYYCAAELGGYVASYYYPGYDYWGQGTQVTVSS,low polyreactivity
3,QVQLVESGGGLVQAGGSLRLSCAASGSILYFNAMGWYRQAPGKERELVAAISRTGSRTYYADSVKGRFTISRDNAKNTVYLQMNSLKPEDTAVFYCAAYNGITSHLRFDYWGQGTQVTVSS,high polyreactivity
4,QVQLVESGGGLVQAGGSLRLSCAASGSIFGYYALGWYRQAPGKERELVAAISRSGGSTYYADSVKGRFTISRDNAKNTVYLQMNSLKPEDTAVYYCAADDYPYGNYYWGQGTQVTVSS,high polyreactivity
5,QEQLQESGGGLVQAGGTLRLSCSASGTISPLPAMGWYRQSPGKEREFVAGIDTGAITNYADSVKGRFTISRDNAKNTVYLQMNSLKPEDTAVYYCAVFPAAYDYYERYYTYWGQGTQVTVCS,low polyreactivity
6,QVQLVESGGGLVQAGGSLRLSCAASGLTIFVYAMGWYRQAPGKERELVAAISDSGGSTYYADSVKGRFTISRDNAKNTVYLQMNSLKPEDSAVYYCAGNSSTYPSDDSYDYWGQGTQVTVSS,low polyreactivity
7,QVQLVESGGGIVQAGGSLRLSCAASGNTYRWYAMGWNIQAPGKEREFVADITVRGGSTYYADSVKGRFTISRDNAKNTVYLQMNSLKPEDTAVYYCAADYRYGGSRGYRYDYWGQGTQVTVSS,low polyreactivity
8,QVHLVESGGGLVQAGGSLRLSCAASGSTIRAYAMGWNRQAHVKERELVAAISYSGDSTYYADSVKGRFTISRDNAKNTVYLQMNSLKPEDTAVYYCAADYSYRHYEYDYWGQGTQVSVSS,low polyreactivity
9,QVQLVESGGGLVQAGGSLRLSCAASGSTFIGYAMGWYRQAPGKERELVASISWGGGSTYYADSVKGRFTISRDNAKNTVYLQQNSLIPEDTAVYYCNTYYWFSGCPYDYWGQGTQVTVSS,low polyreactivity
10,QVQLVESGGGLVQAGGSLRLSCAASGSTFPDYAMGWYRQAPGKERELVAAISYRGGSTNYADSVKGRFTISRDNAKNTVYLQMNSLKPEDTAVYYCATDDYYPQPFYYEYDYWGQGSQVTVSS,low polyreactivity
11,QVQLVESGGGLVQAGGSLRLSCAASGFIFSNYAMGWYRQEPGKERELVAAISWSGTLTNYADSVKGRFTISRDNAKNTVYLQMNSLKPEDTAVYYCAAYGDYLYDYWGQGTQVTVSS,low polyreactivity
12,QVHLVESVGGLVQAGGSLRLSCAASGFILAVYVLGWYRQAPGKDRELVAAISWSGGSTYYADSVKGRFTISRDNAKNTVYLQMNSLKPEATAVYYCNTVAKSPVKYDYWGQGTQVTVSS,high polyreactivity
13,QVQLVESGGGLVQAGGRLRLSCAPSGRIFVYNAMGWYRQAPGKERELVAAINSGDSTYYADSVKGRFTISRDNAKKTVYLQMNSLKPEDTAVYYCARDGWAFSIYYDLDYWGQGTQVTVSA,low polyreactivity
14,QVQLVESGGGLVQAGGSLRLSCAASGRIFSYYAMGWYRQAPGKERELVAAISRSGGRTYYADSVKGRFTISRDNAKNTVYLQMNSLKPEDTAVYYCAALQRDYSGRYPVSMYYWGQGTQVTVSS,high polyreactivity
15,QVQLVESGGGLVQAGGSLRLSCAASGSTFPGYDMGWYRQAPGKERELVAAISWRDGRTFYADSVKGRFTISRDNAKNTVYLQMNSLKPEDSAVYYCAAAQRTAYLTYSYKYNYWGQCTQVTVSS,high polyreactivity
16,QVQLGESGGGLVQAGGSLRLSCAASGIILHGYAMGWYRPAPGKEREFVATITLSGSSTYYADSVKGRFTISRDNAKNTVYLQMNSRKAEDTAVYYSAARTWVIVYGLQYDYWGHGTQVTVSS,high polyreactivity
